These results are taken from patent US20170260534A1 (ANAEROPHARMA SCIENCE, published 2017).

Experiment [1] concerns the target T1, Recombinant Human CTLA-4-Fc Chimera (BioLegend) (human, UniProt P16410 36-161, limits assumed).
T1 construct: Bought reagent; also called hCTLA-4; hCTLA-4 immobilized; not shown: human IgG1 Fc
T1 sequence (looked up): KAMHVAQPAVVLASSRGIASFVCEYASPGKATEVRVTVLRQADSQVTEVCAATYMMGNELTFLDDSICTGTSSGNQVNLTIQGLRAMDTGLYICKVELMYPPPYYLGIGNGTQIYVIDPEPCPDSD
Put plainly: SPR (Biacore), Fc-fused hCTLA-4 captured by anti-human IgG (Fc), scFv as analyte, single cycle kinetics. The protocol:
The binding kinetic parameter of each hCTLA-4scFv01-FLAG purified to hCTLA-4 (fusion protein with human IgG1Fc) was measured by surface plasmon resonance using Biacore system (manufactured by GE Healthcare). To a substrate having a carboxyl methyl dextran-coated gold membrane, a mouse anti-human IgG (Fc) monoclonal antibody (manufactured by GE Healthcare) was bound in accordance with amine coupling, and Fc-fused recombinant hCTLA-4 (Biolegend) was captured as a ligand. As an analyte, scFv purified was used. Samples of scFv having a concentration of 0.7404, 2.2222, 6.6667, 20 and 60 nM were prepared and sequentially subjected to binding in order of increasing concentration in accordance with single cycle kinetics. Data obtained were analyzed by BIA evaluation software (manufactured by GE Healthcare).
The binding kinetic parameter to hCTLA-4 (fusion protein with human IgG1Fc) was measured by surface plasmon resonance using Biacore system. Thereafter, analysis was carried out in the same manner as in Example 29.
In general terms: In SPR one partner is held on a chip, and binding of the other changes the refractive index at the surface.

Experiment [2] has as its target T2, human PD-1 overexpressed on HEK293T cells (human, UniProt Q15116 25-288).
T2 construct: whole, on cells; also called hPD-1 expressing cells; human PD-1 overexpressing cell
In words: flow cytometry on HEK293T cells overexpressing hPD-1; anti-hCTLA-4scFv01-FLAG purified from PC4, used as in Example 24 (biotinylated Protein L and Brilliant Violet 421 Streptavidin) [d].

Experiment [3] has as its target T1, Recombinant Human CTLA-4-Fc Chimera …. Put plainly: ELISA, antigen-Fc immobilized, scFv at 1 ng/mL. The protocol:
(§1) After the liquid was removed, 1×PBS (350 μL) for each was dispensed and the liquid was removed. This operation was repeated three times for washing. To each of the plates, 1% BSA solution (350 μL) was dispensed at room temperature and incubated for 2 hours for blocking. After the liquid was removed, 1×PBS (350 μL) for each was dispensed and the liquid was removed. This operation was repeated three times for washing.
(§2) To blank wells, the signal enhancing reagent alone was dispensed in an amount of 100 μL. […] After the liquid was removed, 1×PBS (350 μL for each) was dispensed and the liquid was removed. This operation was repeated three times for washing.
(§3) The plates were shielded from light and incubated at room temperature for 20 minutes. […] Absorbance was measured at 450 nm and 570 nm (reference wavelength).
(In an ELISA, binding on a coated surface is turned into a signal by an enzyme label.)

The target in experiment [4] is T3, mPD-1 (Fc Chimera, R&D Systems) (mouse, UniProt Q02242 25-167).
T3 construct: Species read from the label mPD-1 only; also called mPD-1 immobilized; Fc part of the bought chimera not given
T3 sequence (looked up): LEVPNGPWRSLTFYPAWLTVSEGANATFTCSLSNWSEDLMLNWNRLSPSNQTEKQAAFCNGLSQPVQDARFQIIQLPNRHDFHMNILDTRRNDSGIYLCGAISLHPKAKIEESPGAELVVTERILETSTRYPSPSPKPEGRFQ
In words: ELISA, antigen-Fc immobilized, scFv at 1 ng/mL. The protocol:
as §1, §2, §3

For experiment [5], the target named is T1, Recombinant Human CTLA-4-Fc Chimera …. Put plainly: ELISA, antigen-Fc immobilized, scFv at 10 ng/mL. Here is the method: as §1, §2, §3
Experiment [6] concerns the target T3, mPD-1 (Fc Chimera, R&D Systems). Put plainly: ELISA, antigen-Fc immobilized, scFv at 10 ng/mL. The protocol: as §1, §2, §3
Experiment [7] addresses T1, Recombinant Human CTLA-4-Fc Chimera …. In words: ELISA, antigen-Fc immobilized, scFv at 100 ng/mL. The protocol:
as §1, §2, §3

Experiment [8] concerns the target T3, mPD-1 (Fc Chimera, R&D Systems). In words: ELISA, antigen-Fc immobilized, scFv at 100 ng/mL. The protocol:
as §1, §2, §3

For experiment [9], the target named is T1, Recombinant Human CTLA-4-Fc Chimera …. In words: ELISA, antigen-Fc immobilized, scFv at 1000 ng/mL. Here is the method:
as §1, §2, §3

In experiment [10] the target is T3, mPD-1 (Fc Chimera, R&D Systems). In words: ELISA, antigen-Fc immobilized, scFv at 1000 ng/mL. The protocol: as §1, §2, §3

Residue numbers refer to the chain shown, from its start. Numbers in names are those of the source.

T2 sequence (Q15116 25-288): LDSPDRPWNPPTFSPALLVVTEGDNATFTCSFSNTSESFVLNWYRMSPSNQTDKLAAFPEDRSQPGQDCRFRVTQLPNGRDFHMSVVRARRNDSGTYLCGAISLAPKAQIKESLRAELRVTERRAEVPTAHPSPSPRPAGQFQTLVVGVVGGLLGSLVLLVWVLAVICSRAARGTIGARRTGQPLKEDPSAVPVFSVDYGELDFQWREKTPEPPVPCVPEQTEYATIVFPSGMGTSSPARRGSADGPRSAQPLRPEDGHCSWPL

B1: anti-hCTLA-4scFv01-FLAG purified from single-expression strain C1F or from co-expression strain PC4 (scFv)
scFv: ATLTPQVQLVESGGGVVQPGRSLRLSCAASGFTFSSYGMHWVRQAPGKGLEWVAVIWYDGSNKYYADSVKGRFTISRDNSKNTLYLQMNSLRAEDTAVYYCARDPRGATLYYYYYGMDVWGQGTTVTVSSGGGGSGGGGSGGGGSDIQMTQSPSSLSASVGDRVTITCRASQSINSYLDWYQQKPGKAPKLLIYAASSLQSGVPSRFSGSGSGTDFTLTISSLQPEDFATYYCQQYYSTPFTFGPGTKVEIKDYKDDDDK
notes: Plasmid pP30SP50L5-hCTLA-4scFv01-FLAG (pC1F) and pPC4; PC4 and PC6 secrete the same scFv as C1F; Signal peptide SP50 left out; also called scFv derived from C1F strain; hCTLA-4scFv01-FLAG purified from PC4 strain
With B1, in [1], the Kd – broadly, the concentration at which binding is half-saturated – was 1.08 nM; the koff – broadly, the rate constant with which the complex falls apart – is 0.000996 s⁻¹; the association rate constant (kon) (commonly the second-order rate constant of association) came to 918000 M⁻¹ s⁻¹. In addition, the binding result in [2] was “no binding (tested: 1 ug/mL)”.

B2: anti-hCTLA-4scFv01-FLAG purified from single-expression strain C2F (scFv)
scFv: AQVQLVESGGGVVQPGRSLRLSCAASGFTFSSYGMHWVRQAPGKGLEWVAVIWYDGSNKYYADSVKGRFTISRDNSKNTLYLQMNSLRAEDTAVYYCARDPRGATLYYYYYGMDVWGQGTTVTVSSGGGGSGGGGSGGGGSDIQMTQSPSSLSASVGDRVTITCRASQSINSYLDWYQQKPGKAPKLLIYAASSLQSGVPSRFSGSGSGTDFTLTISSLQPEDFATYYCQQYYSTPFTFGPGTKVEIKDYKDDDDK
notes: Plasmid pP30SP67L1-hCTLA-4scFv01-FLAG (pC2F); PC2 and PC7 secrete the same scFv; Signal peptide SP67 left out; also called scFv derived from C2F strain
Consider B2, for which, in experiment [1], the Kd amounted to 2.28 nM, the koff was 0.00103 s⁻¹ and the kon was found to be 452000 M⁻¹ s⁻¹.

B3: anti-hCTLA-4scFv01-FLAG purified from single-expression strain C3F (scFv)
scFv: B2 scFv with A1D
notes: Plasmid pP30SP68L1-hCTLA-4scFv01-FLAG (pC3F); PC3, PC5 and PC8 secrete the same scFv; also called scFv derived from C3F strain
As to B3, in [1], the Kd came out at 2.97 nM, the koff was 0.00103 s⁻¹ and the kon was found to be 347000 M⁻¹ s⁻¹.

B4: anti-hPD-1scFv03 purified from the culture supernatant of co-expression strain PC1 (scFv)
scFv: DSAQTSAVVSSRSFPKASSVQVQLVESGGGVVQPGRSLRLDCKASGITFSNSGMHWVRQAPGKGLEWVAVIWYDGSKRYYADSVKGRFTISRDNSKNTLFLQMNSLRAEDTAVYYCATNDDYWGQGTLVTVSSGGGGSGGGGSGGGGSEIVLTQSPATLSLSPGERATLSCRASQSVSSYLAWYQQKPGQAPRLLIYDASNRATGIPARFSGSGSGTDFTLTISSLEPEDFAVYYCQQSSNWPRTFGQGTKVEIKHHHHHH
notes: Secreted from the cassette SP7L20-anti-hPD-1scFv03-His tag; also called anti-PD-1scFv03
As for B4, the OD value in [3] was -0.062 OD; in experiment [4], -0.059 OD; in [5] it was -0.055 OD; in experiment [6], -0.057 OD; in [7] it was -0.018 OD; in [8] it was -0.049 OD. The results for the OD value in experiment [9] and in [10] were 0.341 OD and 0.107 OD, respectively.

B5: anti-hCTLA-4scFv01 (not tagged) of single-expression strain C1TLB (scFv)
scFv: ATLTPQVQLVESGGGVVQPGRSLRLSCAASGFTFSSYGMHWVRQAPGKGLEWVAVIWYDGSNKYYADSVKGRFTISRDNSKNTLYLQMNSLRAEDTAVYYCARDPRGATLYYYYYGMDVWGQGTTVTVSSGGGGSGGGGSGGGGSDIQMTQSPSSLSASVGDRVTITCRASQSINSYLDWYQQKPGKAPKLLIYAASSLQSGVPSRFSGSGSGTDFTLTISSLQPEDFATYYCQQYYSTPFTFGPGTKVEIK
notes: Plasmid pC1TLB; PC4TL and PC6TL secrete the same scFv; Signal peptide SP50 left out; also called scFv derived from C1TLB strain; anti-hCTLA-4scFv01 in culture supernatants of PC4TL and PC6TL
For the molecule B5, in experiment [1], the Kd came out at 1.48 nM, the koff is 0.00098 s⁻¹ and the kon worked out at 661000 M⁻¹ s⁻¹.

B6: anti-hCTLA-4scFv01 (not tagged) of single-expression strain C2TLB (scFv)
scFv: AQVQLVESGGGVVQPGRSLRLSCAASGFTFSSYGMHWVRQAPGKGLEWVAVIWYDGSNKYYADSVKGRFTISRDNSKNTLYLQMNSLRAEDTAVYYCARDPRGATLYYYYYGMDVWGQGTTVTVSSGGGGSGGGGSGGGGSDIQMTQSPSSLSASVGDRVTITCRASQSINSYLDWYQQKPGKAPKLLIYAASSLQSGVPSRFSGSGSGTDFTLTISSLQPEDFATYYCQQYYSTPFTFGPGTKVEIK
notes: Plasmid pC2TLB; PC2TL and PC7TL secrete the same scFv; Signal peptide SP67 left out; also called scFv derived from C2TLB strain; anti-hCTLA-4scFv01 in culture supernatants of PC2TL and PC7TL
With B6, in experiment [1], the Kd was 0.98 nM, the koff came out at 0.000961 s⁻¹ and the kon was 981000 M⁻¹ s⁻¹.

B7: anti-hCTLA-4scFv01 (not tagged) of single-expression strain C3TLB (scFv)
scFv: B6 scFv with A1D
notes: Plasmid pC3TLB; PC3TL, PC5TL and PC8TL secrete the same scFv; Signal peptide SP68 left out; also called scFv derived from C3TLB strain; anti-hCTLA-4scFv01 in culture supernatants of PC3TL, PC5TL and PC8TL
With B7, in experiment [1], the Kd turned out to be 1.29 nM, the off-rate (koff) turned out to be 0.000996 s⁻¹ and the on-rate (kon) came out at 773000 M⁻¹ s⁻¹.
